In patent US20180339041A1 (Kyowa Kirin, published 2018):

T1: C-terminally FLAG-tagged rat Gas6 recombinant protein (rGas6-F) (rat, UniProt Q63772 28-674, limits assumed, gamma-carboxylated glutamic acid residues in the Gla domain (producer cells co-express rat VKOR and human GGCX); positions not given)
T1 construct: also called rat Gas6-F
T1 sequence (looked up): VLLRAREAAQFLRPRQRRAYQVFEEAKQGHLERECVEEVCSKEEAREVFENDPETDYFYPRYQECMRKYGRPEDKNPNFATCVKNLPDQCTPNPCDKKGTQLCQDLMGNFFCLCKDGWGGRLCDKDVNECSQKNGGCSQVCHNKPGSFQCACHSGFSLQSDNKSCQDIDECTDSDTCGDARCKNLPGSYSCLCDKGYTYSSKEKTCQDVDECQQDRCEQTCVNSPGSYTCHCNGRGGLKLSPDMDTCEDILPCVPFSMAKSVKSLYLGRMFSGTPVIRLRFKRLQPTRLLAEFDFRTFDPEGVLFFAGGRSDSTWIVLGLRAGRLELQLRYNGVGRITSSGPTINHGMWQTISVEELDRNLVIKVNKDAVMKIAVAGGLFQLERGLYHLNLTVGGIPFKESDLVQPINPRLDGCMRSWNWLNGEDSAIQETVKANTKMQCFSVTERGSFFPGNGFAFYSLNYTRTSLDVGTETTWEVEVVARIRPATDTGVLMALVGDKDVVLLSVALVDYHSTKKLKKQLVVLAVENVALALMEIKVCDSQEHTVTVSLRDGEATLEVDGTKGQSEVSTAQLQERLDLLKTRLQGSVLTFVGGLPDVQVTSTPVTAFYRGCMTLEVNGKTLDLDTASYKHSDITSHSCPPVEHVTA

T2: C-terminally FLAG-tagged human Gas6 recombinant protein (hGas6-F) (human, UniProt Q14393 31-678, gamma-carboxylated glutamic acid residues in the Gla domain (producer cells co-express rat VKOR and human GGCX); positions not given)
T2 construct: also called human Gas6-F; human Gas6 protein
T2 sequence: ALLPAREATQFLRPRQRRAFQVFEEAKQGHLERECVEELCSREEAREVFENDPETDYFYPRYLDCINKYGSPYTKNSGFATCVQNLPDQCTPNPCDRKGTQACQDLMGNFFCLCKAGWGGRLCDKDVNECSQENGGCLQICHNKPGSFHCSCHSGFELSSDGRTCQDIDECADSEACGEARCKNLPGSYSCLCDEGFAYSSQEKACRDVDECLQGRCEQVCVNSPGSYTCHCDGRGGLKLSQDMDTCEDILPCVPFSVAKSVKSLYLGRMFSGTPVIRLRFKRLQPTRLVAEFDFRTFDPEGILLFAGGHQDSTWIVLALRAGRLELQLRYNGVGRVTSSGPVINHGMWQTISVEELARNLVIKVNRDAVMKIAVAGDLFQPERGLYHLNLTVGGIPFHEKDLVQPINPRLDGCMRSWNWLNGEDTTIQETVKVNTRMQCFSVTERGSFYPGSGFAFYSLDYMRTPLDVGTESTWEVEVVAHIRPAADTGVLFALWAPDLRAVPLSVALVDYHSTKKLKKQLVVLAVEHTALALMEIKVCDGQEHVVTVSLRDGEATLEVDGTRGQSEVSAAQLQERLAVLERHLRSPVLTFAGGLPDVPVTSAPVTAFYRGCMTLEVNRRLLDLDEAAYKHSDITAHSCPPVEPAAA


Columns and labels:
[1] = molecular target: T1, C-terminally FLAG-tagged rat Gas6 …; test: competition ELISA: rAxl-hFc coated; rGas6-F at 50 ng/mL final premixed with the antibody; bound Gas6-F detected with anti-FLAG M2-HRP; blocked partner rAxl-hFc (Examples 5(4) and 7) [B]
[2] = molecular target: T2, C-terminally FLAG-tagged human Gas6 …; test: ELISA: hGas6-F (1 µg/mL) captured on coated anti-FLAG M2 antibody; biotinylated test antibody; streptavidin-HRP/TMB; absorbance 450-570 nm, N=2 (Example 6) [A]
Procedure: First, 2 μg/mL anti-FLAG antibody [Monoclonal ANTI-FLAG M2 antibody produced in mouse (manufactured by Sigma-Aldrich Co. LLC) diluted with PBS (manufactured by Nacalai Tesque, Inc.)] was dispensed at 50 μL/well to a 96-well plate for ELISA (manufactured by Nalge Nunc International), and the plate was left standing overnight at 4° C. for adsorption. After removal of the immobilization solution, 1% BSA-PBS (manufactured by Nacalai Tesque, Inc.) was added thereto at 300 μL/well, and the plate was left standing at room temperature for 1 hour for blocking and washed five times with Tween 20-PBS (manufactured by Wako Pure Chemical Industries Ltd.).
Each antibody solution was dispensed thereto at 50 μL/well, and the plate was left standing at room temperature for 1 hour. This plate was washed five times with Tween 20-PBS. Then, Streptavidin HRP Conjugate (manufactured by R&D Systems, Inc.) diluted 200-fold with 1% BSA-PBS was dispensed thereto at 50 μL/well, and the plate was left standing at room temperature for 1 hour. This plate was washed five times with Tween 20-PBS, and TMB (manufactured by Sigma-Aldrich Co. LLC) was added thereto at 50 μL/well and reacted. […] The absorbance at a sample wavelength of 450 nm and a reference wavelength of 570 nm (450 nm-570 nm) was measured using a plate reader.

| IC50 (read off the curve) [1] [µg/mL] | EC50 (read off the curve) [2] [µg/mL] | Binder |
| --- | --- | --- |
| ~0.03 | ~0.004 | anti-human Gas6 mouse monoclonal antibody KM5321 (KM5321-mKG1 antibody) (antibody, V domains shown, Hybridoma-derived mouse IgG1, kappa; also called KM5321 antibody) VH: QIQLVQSGPELKKPGETVKISCRASGYTFTNYGMNWVKQAPGKGLKWMGWINTNTGEPTYTEEFKGRFAFSLETSATTAYLQINDLKNEDTATYFCARDEGWFVYWGQGTLITVSA VL: ETTVTQSPASLSVATGEKVTIRCITSTDIDDDMNWYQQKPGEPPKLLISEGNTLRPGVPSRFSSSGYGTDFVFTIENTLSEDVADYYCLQTDSVPLTFGAGTKLELK |
| ~0.05 | ~0.003 | anti-human Gas6 mouse monoclonal antibody KM5320 (KM5320-mKG1 antibody) (antibody, V domains shown, Hybridoma-derived mouse IgG1, kappa; also called KM5320 antibody) VH: QIQLVQSGPELKKPGETVKISCKASGYTFTNYGMNWVKQAPGKGLKWMGWINTETGEPTYSDDFKGRFAFSLETSATTAYLQINNLRNEDMATYFCAREDGYYGTLDYWGQGTSVTVSS VL: SIVMTQTPKFLLVSAGDRVTITCKASQSVSNDVAWYQQKPGQSPKVLIYYASNRYTGVPDRFTGSGYGTDFTFTISTVQAEDLAVYFCQQDYSSPWTFGGGTKLEIK |
